Test results: paper PMC3031671

Biological target: Fibronectin (FN) purified from human plasma (human)
Experiment: ELISA

| Substance | Kd |
| --- | --- |
| Full-length MMP-2^E404A (catalytically inactive, ligand-binding matrix metalloproteinase-2) (from UniProt P08253 30-660) (enzyme) | 20 nM |
| Isolated recombinant hemopexin-like carboxyl-terminal domain of MMP-2 (PEX) (from UniProt P08253 446-660) (domain or fragment) | 100 nM |
